Numbering of substitutions follows the chain as printed.
Assays:
[1] = target: T1, human CD22 (d1 to d7 domain according to NP_001762.2) (human, UniProt P20273 20-687); experiment: SPR; purified naked mAb captured on protein A chip, human CD22 injected
T1 construct: domain: d1 to d7 domain; also called human CD22-gly; Siglec-2
Protocol: To assess if CpG conjugation affects the binding of respective humanized anti-CD22 to human CD22, SPR assay was carried out. […] Briefly, biotinylated protein A (15 μg/mL) was immobilized to the surface of an NLC chip. 30 nM of purified naked mAb or CpG conjugated mAb solution in PBS-T was used for capture over the protein A surface. Serial dilutions of human CD22 (300 nM, 3× dilution) were injected over the mAb-coated chips, and binding kinetics were determined. Chips were regenerated using 4:1 v/v of Pierce IgG elution butter/4M NaCl.

[2] = target: T1, human CD22 (d1 to d7 domain according …); experiment: SPR; mAb supernatant captured on protein A chip, human CD22 injected
Protocol: Binding of humanized anti-CD22 antibodies to human CD22 was measured by surface plasmon resonance (SPR). For assessment of binding by SPR, biotinylated protein A (15 μg/mL) was immobilized to the surface of an NLC chip. 30 μL of mAb supernatant was added to 150 μL of PBS-T and captured over the protein A surface. Serial dilutions of human CD22-gly (300 nM, 3× dilution) were injected over the mAb-coated chips, and binding kinetics were determined. Chips were regenerated using 4:1 v/v of Pierce IgG elution butter/4M NaCl.

[3] = target: T2, cynomolgus monkey CD22 on B cells of cynomolgus PBMCs (cynomolgus monkey); experiment: flow cytometry; Alexa Fluor 647-labelled antibody on CD20+ B cells of cynomolgus PBMCs
T2 construct: whole, on cells; also called cynomolgus CD22; Cyno CD22
Protocol: (§1) Binding of humanized anti-CD22 antibodies to human or cynomolgus PBMCs was measured by flow cytometry. Trima residuals were received from Vitalant and cynomolgus monkey whole blood were received from BioIVT. Both were diluted 1:4 with Phosphate Buffered Saline (PBS, Gibco). Diluted blood was split into two tubes and underplayed with 15 mL Ficoll-Paque (GE Healthcare). Tubes were centrifuged for 30 minutes at 400×g. PBMCs were collected from the interface, washed and resuspended in FACS buffer (PBS with 0.5% Bovine Serum Albumin (Gibco)). 100K PBMCs from human and cynomolgus monkey were plated in 96-well plates and pelleted by centrifugation for five minutes at 400×g and stained at 4° C. in 100 μl Fixable Viability Dye eFluor 780 (Thermo Fisher) diluted 1:4000 in PBS. Cells were centrifuged and stained at 4° C. in 100 μl FACS buffer for 30 minutes containing FcR Blocking Reagent (Miltenyi Biotec), anti-CD20 and Alexa Fluor 647 conjugated CD22 binding antibodies, which were labeled using Molecular Probes Alexa Fluor 647 Protein Labeling kit (Molecular Probes) according to manufacturer's protocol. Cells were centrifuged and washed twice in 200 μl FACS buffer and fixed in 100 μl 0.5% paraformaldehyde. Cells were analyzed on Attune NxT Flow Cytometer (Thermo Fisher), with subsequent data analysis by Flowjo 10.7 (Treestar). Dead cells were excluded by gating on the eFluor 780-negative population. CD20+ cells were gated to identify B cells and median fluorescent intensity for CD22 was determined.

[4] = target: T1, human CD22 (d1 to d7 domain according …); experiment: SPR; summary table, column 'CD22 KD (nM)'
[5] = target: T3, human CD22 on B cells of human PBMCs (human, UniProt P20273 20-847); experiment: flow cytometry; Alexa Fluor 647-labelled antibody on CD20+ B cells of human PBMCs
T3 construct: whole, on cells; also called CD22 on human B cells
Protocol: as §1

[6] = target: T2, cynomolgus monkey CD22 on B cells of …; experiment: flow cytometry; Alexa Fluor 647-labelled antibody, cynomolgus PBMCs
Protocol: as §1
(§2) The fold increase in binding was determined by calculating the ratio of CD22 median fluorescent intensity on CD20⁺ over CD20⁻ cells.

[7] = target: T3, human CD22 on B cells of human PBMCs; experiment: flow cytometry; Alexa Fluor 647-labelled antibody, human PBMCs
Protocol: as §1, §2

B1: TNT71 (antibody, human IgG1, kappa, V domains shown)
VH: EVQLVESGGGLVQPGGSLRLSCAASGFTFSSYEMNWVRQAPGKGLEWVSYISSSGSTIYYADSVKGRFTISRDNAKNSLYLQMNSLRAEDTAVYYCARHSGYGTHWGVLFAYWGRGTLVTVSS
VL: DIQMTQSPSSLSASVGDRVTITCRASQDIHGYLNWYQQKPGKAPKLLIYYTSILHSGVPSRFSGSGSGTDFTLTISSLQPEDFATYFCQQGNTLPWTFGQGTKLEIKR
Question: With B1 as the binder, how does the Kd [1] read?
Answer: 0.263 nM

Question: What about the Kd [2] of the same binder?
Answer: 5.2 nM

Question: What about the “CD22 Median Fluorescent Intensity on CD20+ cells” value [3] of the same binder?
Answer: 1420

Question: What about the Kd [4] of the same binder?
Answer: 0.3 nM

Question: And the “CD22 Median Fluorescent Intensity on CD20+ cells” value [5]?
Answer: 1460

B2: TNT72 (antibody, human IgG1, kappa, V domains shown)
VH: QVQLQESGPGLVKPSDTLSLTCTVSGFAFSIYDMSWIRQPPGKGLEWIAYISSGGGTTYYNPSLKSRVTISVDTSKNQFSLKLSSVTAADTAVYYCARHSGYGTHWGVLFAYWGRGTLVTVSS
VL: B1 VL
Question: What does the source list for B2?
Answer: Kd [1]: 0.922 nM; Kd [2]: 0.655 nM; CD22 Median Fluorescent Intensity on CD20+ cells [3]: 1370; Kd [4]: 0.7 nM; CD22 Median Fluorescent Intensity on CD20+ cells [5]: 1560

B3: TNT77 (antibody, human IgG1, kappa, V domains shown)
VH: EVQLVESGGGLVQPGGSLRLSCAASGFAFSIYDMSWVRQAPGKGLEWVAYISSGGGTTYYPDTVKGRFTISRDNSKNTLYLQMNSLRAEDTAVYYCARHSGYGTHWGVLFAYWGRGTLVTVSS
VL: B1 VL with D28S, H30S, G31S, Y50A, T51A, I53S, H55Q, F87Y
Question: What does the source list for B3?
Answer: Kd [2]: 10.2 nM; koff [2]: 0.00207 s⁻¹; kon [2]: 203000 M⁻¹ s⁻¹; CD22 Median Fluorescent Intensity on CD20+ cells [3]: 236; CD22: CD20+/CD20- (ratio of median fluorescent intensity) [6]: 2.6 fold; Kd [4]: 10 nM; CD22: CD20+/CD20- (ratio of median fluorescent intensity) [7]: 20.9 fold; CD22 Median Fluorescent Intensity on CD20+ cells [5]: 1320
